Measured values: patent US20250340655A1, “EPHA2-TARGETING ANTIBODIES AND THEIR APPLICATIONS IN CANCER TREATMENT” (TAIPEI MEDICAL UNIVERSITY, priority 2022, published 2025)

Experiments:
Mia PaCa-2 tumor = Mia PaCa-2 tumor xenograft model (IgG hSD5, gemcitabine); format: in vivo, mouse
Protocol: (§1) The freshly prepared BxPc-3 and Mia PaCa-2 cancer cells were harvested during the log growth phase and resuspended in PBS for tumor implantation. Each NOD/SCID mouse was subcutaneously inoculated with cancer cells (5×10^6 to BxPc-3 and 1×10^7 to Mia PaCa-2) for tumor formation. The tumor size was measured twice weekly, and the volume was calculated as follows: V=0.5lw^2, where l=the length and w=the width. When the tumor size was approximately 100 mm3, animals were divided into groups that received (a) vehicle alone through intravenous injection (i.v.) once weekly (qwk), (b) control human IgG1 at 20 mg/kg through i.v. qwk, (c) and (d) hSD5 IgG1 at 2 or 20 mg/kg through i.v. qwk, (e) and (f) gemcitabine at 20 or 100 mg/kg through i.v. twice weekly (biw), or (g) hSD5 IgG1 at 2 mg/kg through i.v. qwk combined with gemcitabine at 20 mg/kg through i.v. biw. At the end of the experiment, the antitumor effects were quantified by dividing the tumor volumes in the treatment groups by those in the control groups and multiplying them by 100 to represent tumor growth inhibition (TGI; %). The mice were also examined frequently for overt signs of adverse drug-related side effects.
(§2) The pancreatic tissue microarray slide (US Biomax, PA483e) was used to detect and analyze the EphA2 expression of clinical samples. In the xenograft animal model, the excised BxPc-3 and Mia PaCa-2 tumors were fixed in formalin, embedded in paraffin, and sliced for immunohistochemical staining (IHC). Commercial antibodies (Cell signaling, Dako; Agilent Technologies; and Abcam) were used for staining the EphA2 molecule, cell proliferation marker Ki-67, and apoptosis marker cleaved caspase 3. The effects of staining were observed using a Zeiss Axioskop-2 microscope (Carl Zeiss).
(§3) Mia PaCa-2 xenograft mice was also used to determine the inhibitory effect of IgG hSD5 on in vivo tumor growth. Administration of IgG hSD5 (20 mg/kg, iv, qwk, indicated as blue filled inverted triangles) and Gemcitabine (100 mg/kg, iv, biw, indicated as orange filled squares) were used to test the inhibition effect on BxPc-3 tumor growth, n=6, TGI denotes Tumor growth inhibition. (FIG. 8A) Administration of IgG hSD5 (2 mg/kg, iv, qwk, indicated by solid black triangles), Gemcitabine (20 mg/kg, iv, biw, indicated by black open squares), and the experimental group that combined IgG and Gemcitabine treatment simultaneously (indicated by solid red diamonds) were used to teat the growth inhibitory effect of BxPc-3 on the tumor. (FIG. 8B) During treatments, the weight changes of each mouse group were tracked. (FIG. 8C) The expression levels of EphA2, cell proliferation marker Ki67, and apoptosis-related marker cleaved caspase3 in the excised tumor groups were analyzed by IHC staining. (FIG. 8D)

[1] = test system: EphA2pep_P1 and EphA2pep_P2 synthetic peptides; test: Dot blot assay with synthetic peptides; format: binding; conditions: dot blot (FIG. 9B)
Excerpt: We used peptide enzyme-linked immunosorbent assay (ELISA) to identify the designed epitope on EphA2; the BSA-conjugated peptides EphA2pep_P1 (BSA-[…]) and EphA2pep_P2 (BSA-[…]) each represent the two segments of the linear epitope designed on EphA2. EphA2pep_PIP2 (BSA-[…]) represents the two linear epitope sequences connected by a linker. These peptides were synthesized and conjugated with BSA (Kelowna International Scientific). The BSA-conjugated peptides were individually coated on a 96-well microplate at 4° C. overnight. After the wells were blocked with 3% BSA, IgG hSD5 was added and incubated. Next, an HRP-conjugated anti-HA tag antibody (Cell Signaling Technology) was used to detect bound scFv. Finally, the TMB substrate was added for development, and the reaction was stopped by adding 1 N HCl. Absorbance was measured by determining the OD at 450 nm. A dot blot assay was used to detect the binding of IgG hSD5 to the synthesized peptides; […] of individual peptides (1 mg/mL; in triplicate) were dropped on the NC membrane and maintained at RT for complete absorption. Blocking with 3% BSA was performed at RT for 1 h. Then, IgG hSD5 (10 μg/mL) was added, and the reaction was allowed to proceed for 1 h at RT. After the membrane was washed, the HRP-conjugated anti-HA tag antibody was added, and the reaction was allowed to proceed for 1 h at RT. […]

[2] = molecular target: T1, endogenous EphA2 molecule on colon cancer cells (HCT116, SW480 and SW460) (Homo sapiens, UniProt P29317); test: Flow cytometry binding on colon cancer cells; conditions: flow cytometry (FIG. 18B)
T1 construct: endogenous in cells; host or cells: HCT116, SW480, SW460

SNU-16, N87 and MKN-45 = test: MTS growth inhibition, gastric cancer cells; format: cell-based; conditions: 3 days (FIG. 15B)
Protocol: The growth inhibitory effect of hSD5-ADC on the three strains of gastric cancer cells were tested under different concentrations. At indicated concentrations interacted with the cancer cells for 3 days, and the effects on the growth of cancer cells were observed by MTS assay. […] (FIG. 15B)

[3] = molecular target: T2, endogenous EphA2 molecules on cholagiocarcinoma cell lines (HuCCT1, ssp-25, RBE, TFK) and bladder cancer cell line (PC-3) (Homo sapiens, UniProt P29317); test: Flow cytometry binding on cholagiocarcinoma and bladder cancer cell lines; conditions: cholagiocarcinoma and bladder cancer cell lines (FIG. 17B)
T2 construct: endogenous in cells; host or cells: HuCCT1, ssp-25, RBE, TFK, PC-3
Excerpt: Flow cytometry was used to analyze the response of hSD5 IgG with different concentrations in identifying endogenous EphA2 molecules on the four strains of cholagiocarcinoma cell lines and bladder cancer cell line. PC represents the use of commercial Ab to determine the expression of EphA2 on cancer cells.

BxPc-3 tumor = BxPc-3 tumor xenograft model (IgG hSD5, gemcitabine); format: in vivo, mouse
Protocol: as §1, §2
as §3, with “Administration” for “Mia PaCa-2 xenograft mice was also used to determine the inhibitory effect of IgG hSD5 on in vivo tumor growth. Administration”, “7A)” for “8A)”, “7B)” for “8B)”, “7C)” for “8C)”, “7D)” for “8D)”

T1 sequence (P29317 24-976): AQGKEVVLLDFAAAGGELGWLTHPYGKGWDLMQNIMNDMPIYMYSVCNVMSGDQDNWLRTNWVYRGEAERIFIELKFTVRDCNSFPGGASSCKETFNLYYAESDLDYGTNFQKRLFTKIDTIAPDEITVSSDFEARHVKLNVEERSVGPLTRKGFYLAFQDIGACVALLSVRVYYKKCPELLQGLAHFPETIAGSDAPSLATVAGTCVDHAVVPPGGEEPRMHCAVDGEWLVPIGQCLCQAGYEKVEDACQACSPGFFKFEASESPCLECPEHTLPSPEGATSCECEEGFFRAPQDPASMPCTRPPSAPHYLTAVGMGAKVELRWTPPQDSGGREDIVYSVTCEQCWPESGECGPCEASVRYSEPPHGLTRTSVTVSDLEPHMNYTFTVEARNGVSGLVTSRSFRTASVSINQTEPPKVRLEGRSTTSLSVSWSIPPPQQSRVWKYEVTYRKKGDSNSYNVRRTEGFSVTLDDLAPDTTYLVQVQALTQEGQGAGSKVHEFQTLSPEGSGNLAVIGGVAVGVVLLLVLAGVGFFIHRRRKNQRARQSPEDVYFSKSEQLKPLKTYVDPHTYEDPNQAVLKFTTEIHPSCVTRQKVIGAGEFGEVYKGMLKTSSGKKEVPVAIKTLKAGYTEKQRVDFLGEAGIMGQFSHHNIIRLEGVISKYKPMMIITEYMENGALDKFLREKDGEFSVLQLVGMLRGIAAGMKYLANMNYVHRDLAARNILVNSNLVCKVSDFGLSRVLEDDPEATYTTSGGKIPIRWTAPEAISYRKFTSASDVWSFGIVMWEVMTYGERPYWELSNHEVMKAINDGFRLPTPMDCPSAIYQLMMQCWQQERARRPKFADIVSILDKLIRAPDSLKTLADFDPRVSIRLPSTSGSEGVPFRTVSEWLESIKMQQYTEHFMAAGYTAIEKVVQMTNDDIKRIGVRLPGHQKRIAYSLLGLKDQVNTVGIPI
T2 sequence (P29317 24-976): as above

binding reaction with EphA2pep_P1 compared with EphA2pep_P2 [1]: stronger
binding response to EphA2 molecules on cancer cells [2]: significant binding response
binding response to EphA2 molecules on cancer cells [3]: significant binding response
B1: IgG hSD5: complete humanized anti-EphA2 IgG (IgG1) of hSD5 (antibody, V domains shown)
VH: QVQLVESGGGLVQPGGSLRLSCAASGFTFSDYGMGWVRQAPGKGLEWVAGISAAGSFTPYGAAVKGRFTISRDNSKNTVYLQMNSLRAEDTAVYYCARIPSGYRAGEIYTWGQGTLVTVSS
VL: LTQPPSVSVSPGQTVRITCSGSSGSYGWYQQKSPGQAPVTLIYDNDKRPSGIPERFSGSSSGSTSTLTISGVQAEDEADYYCGSADSSTYVGMFGGGTKLTVL
expression levels of EphA2 and Ki-67 in the tissue (Mia PaCa-2 tumor; IHC of Mia PaCa-2 tumor tissue sections (FIG. 8D)): significantly decreased
TGI (tumor growth inhibition) (Mia PaCa-2 tumor; Mia PaCa-2 xenograft, 20 mg/kg): 63.2%
recognition of EphA2pep_P1 and EphA2pep_P2 [1]: can recognize both the antigen fragments
growth inhibitory response of gastric cancer cells (SNU-16, N87 and MKN-45): does not provide ideal inhibition effect
effect on growth of tumors in vivo (BxPc-3 tumor; BxPc-3 xenograft mice): significantly inhibited the growth of tumors
TGI (tumor growth inhibition) (BxPc-3 tumor; BxPc-3 xenograft, 20 mg/kg, iv, qwk): 53.1%
expression levels of EphA2 and Ki-67 in the tumors (BxPc-3 tumor; IHC of removed BxPc-3 tumors, compared with control IgG group (FIG. 7D)): significantly decreased
